Data reported in patent US20230303690A1 (published 2023).
Residue numbers refer to the chain shown, from its start. Values belong to the binder of their own block, whether it stands above or below them.

Legend:
[1] = molecular target: T1, LAG3 Protein, Human, Recombinant (His Tag) (Sino Biological Catalog No. 16498-H08H) (human, UniProt P18627 23-450); assay: SPR binning on LAG3-His; competitor 24
T1 construct: Bought protein; also called hLAG3-His; LAG3-His; not shown: His tag
T1 sequence (looked up): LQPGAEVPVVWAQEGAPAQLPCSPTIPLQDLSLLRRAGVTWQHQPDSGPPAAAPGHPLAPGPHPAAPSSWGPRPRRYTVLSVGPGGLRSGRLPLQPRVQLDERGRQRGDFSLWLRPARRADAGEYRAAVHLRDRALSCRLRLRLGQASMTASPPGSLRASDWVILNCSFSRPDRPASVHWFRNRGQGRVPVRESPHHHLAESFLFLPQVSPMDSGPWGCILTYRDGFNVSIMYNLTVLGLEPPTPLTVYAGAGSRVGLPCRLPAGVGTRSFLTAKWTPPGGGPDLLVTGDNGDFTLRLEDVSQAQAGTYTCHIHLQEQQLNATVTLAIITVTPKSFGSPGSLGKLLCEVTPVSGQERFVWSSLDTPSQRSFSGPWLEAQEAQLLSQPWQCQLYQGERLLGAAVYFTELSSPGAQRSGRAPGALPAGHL
Experimental: (§1) The chip surface was regenerated after each cycle with 25 mM NaOH followed by HBS-EP wash provided in the kit.

[2] = molecular target: T1, LAG3 Protein, Human, Recombinant (His …); assay: SPR binning on LAG3-His; competitor BMS
Experimental: as §1

[3] = molecular target: T1, LAG3 Protein, Human, Recombinant (His …); assay: SPR binning on LAG3-His; competitor 17
Experimental: as §1

[4] = molecular target: T1, LAG3 Protein, Human, Recombinant (His …); assay: SPR binning on LAG3-His; competitor 25
Experimental: as §1

[5] = molecular target: T1, LAG3 Protein, Human, Recombinant (His …); assay: SPR (Biacore), sdAb captured by anti-human Fc, LAG3-His analyte
Experimental: The binding of the single domain antibodies to recombinant human LAG3 protein (rhLAG3) was examined by Biacore™ assay. […] The coating was carried out according to the manufacturer’s instructions accompanying the kit (Catalog No. BR-1008-39, GE). […] The chip surface was regenerated after each cycle with 25 mM NaOH followed by HBS-EP wash provided in the kit.

[6] = molecular target: T1, LAG3 Protein, Human, Recombinant (His …); assay: SPR binning on LAG3-His; competitor 37
Experimental: as §1

[7] = molecular target: T1, LAG3 Protein, Human, Recombinant (His …); assay: SPR binning on LAG3-His; competitor 18
Experimental: as §1

[8] = molecular target: T1, LAG3 Protein, Human, Recombinant (His …); assay: SPR binning on LAG3-His; competitor 20
Experimental: as §1

[9] = molecular target: T2, human LAG3 expressed on cells (human, UniProt P18627 23-525); assay: cell-based or functional assay
T2 sequence (looked up): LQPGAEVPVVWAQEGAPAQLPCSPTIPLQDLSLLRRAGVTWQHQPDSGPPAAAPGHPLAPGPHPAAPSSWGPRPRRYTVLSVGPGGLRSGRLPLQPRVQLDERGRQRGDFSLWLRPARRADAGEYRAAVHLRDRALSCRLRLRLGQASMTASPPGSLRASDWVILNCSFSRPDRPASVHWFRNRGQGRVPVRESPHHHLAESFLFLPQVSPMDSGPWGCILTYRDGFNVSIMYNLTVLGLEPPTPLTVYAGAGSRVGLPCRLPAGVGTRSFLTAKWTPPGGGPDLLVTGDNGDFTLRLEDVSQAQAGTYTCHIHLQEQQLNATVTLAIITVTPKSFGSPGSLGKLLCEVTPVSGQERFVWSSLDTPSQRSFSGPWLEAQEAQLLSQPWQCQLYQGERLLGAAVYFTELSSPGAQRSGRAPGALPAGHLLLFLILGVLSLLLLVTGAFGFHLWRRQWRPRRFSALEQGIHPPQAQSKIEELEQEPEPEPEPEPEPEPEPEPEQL

[10] = molecular target: T1, LAG3 Protein, Human, Recombinant (His …); assay: SPR binning on LAG3-His; competitor 21
Experimental: as §1

[11] = molecular target: T2, human LAG3 expressed on cells; assay: cell-based or functional assay; remark: listed apart in the source
[12] = molecular target: T1, LAG3 Protein, Human, Recombinant (His …); assay: SPR binning on LAG3-His; competitor 1
Experimental: as §1

[13] = molecular target: T1, LAG3 Protein, Human, Recombinant (His …); assay: SPR binning on LAG3-His; competitor 73
Experimental: as §1

[14] = molecular target: T1, LAG3 Protein, Human, Recombinant (His …); assay: SPR binning on LAG3-His; competitor 27
Experimental: as §1

B4: sdAb No. 21 (VHH)
VHH: QLQLVESGGGLVQPGGSLRLSCAASGLTLDGYAIAWFRQAPGKEREGLSCISGTDGSTHYLDSVKGRFTISRDNGKNTMALQMNSLQFGDTAIYYCAARRGSCSGSWTYWGQGTQITVSS
notes: Fc of the tested form not described; also called sdAb 21; not shown: Fc part implied by anti-human Fc capture
RU [1]: -18.9 RU
RU [2]: 194 RU
RU [3]: -12 RU
RU [4]: 179 RU
Kd [5]: 0.278 nM
koff [5]: 0.00178 s⁻¹
kon [5]: 6.41e+06 M⁻¹ s⁻¹
RU [6]: -17.3 RU
RU [7]: -10.3 RU
RU [8]: -12.6 RU
EC50 for IL-2 rescue, hLAG3 Jurkat T system [9]: 3.41 nM
Efficacy (IL-2 production, BMS = 100%) [9]: 31%
RU [10]: -19.1 RU
IL-2, % of BMS, at 0.005080526 ug/mL [11]: 10.5%
IL-2, % of BMS, at 0.015241579 ug/mL [11]: 13.7%
IL-2, % of BMS, at 0.045724737 ug/mL [11]: 13.4%
IL-2, % of BMS, at 0.137174211 ug/mL [11]: 21.7%
IL-2, % of BMS, at 0.411522634 ug/mL [11]: 24.6%
IL-2, % of BMS, at 1.234567901 ug/mL [11]: 27.7%
IL-2, % of BMS, at 3.703703704 ug/mL [11]: 32.8%
IL-2, % of BMS, at 11.11111111 ug/mL [11]: 31.7%
IL-2, % of BMS, at 33.33333333 ug/mL [11]: 38.9%
IL-2, % of BMS, at 100 ug/mL [11]: 35%
RU [12]: -4.7 RU
RU [13]: -19.5 RU
RU [14]: -14.8 RU

B5: sdAb No. 73 (VHH)
VHH: QVQLVESGGGLVQPGGSLKLSCTASGFTLDYYAIAWFRQAPGKEREAVSCISSSDGSTRYADSVKGRFTISRDNAKNTVYLQMNSLKPEDTAVYYCAADPYGDCRGPYDYWGQGTQVTVSS
notes: Fc not described; also called sdAb 73; not shown: Fc part implied by anti-human Fc capture
RU [1]: -9.6 RU
RU [2]: 27 RU
RU [3]: -12.5 RU
RU [4]: 9.8 RU
Kd [5]: 0.182 nM
koff [5]: 0.000975 s⁻¹
kon [5]: 5.35e+06 M⁻¹ s⁻¹
RU [6]: -6.9 RU
RU [7]: -10.6 RU
RU [8]: -117 RU
EC50 for IL-2 rescue, hLAG3 Jurkat T system [9]: 42.6 nM
Efficacy (IL-2 production, BMS = 100%) [9]: 56.4%
RU [10]: -10.2 RU
IL-2, % of BMS, at 0.005080526 ug/mL [11]: 0.495%
IL-2, % of BMS, at 0.015241579 ug/mL [11]: 3.55%
IL-2, % of BMS, at 0.045724737 ug/mL [11]: 3.63%
IL-2, % of BMS, at 0.137174211 ug/mL [11]: 6.64%
IL-2, % of BMS, at 0.411522634 ug/mL [11]: 15.5%
IL-2, % of BMS, at 1.234567901 ug/mL [11]: 19.5%
IL-2, % of BMS, at 3.703703704 ug/mL [11]: 24.5%
IL-2, % of BMS, at 11.11111111 ug/mL [11]: 30.6%
IL-2, % of BMS, at 33.33333333 ug/mL [11]: 36.8%
IL-2, % of BMS, at 100 ug/mL [11]: 41%
RU [12]: -7.3 RU
RU [13]: -9.7 RU
RU [14]: -2.2 RU

Next, values leading:

RU [1]: -10.6 RU
RU [2]: 37.4 RU
RU [3]: -6.9 RU
RU [4]: 30 RU
koff [5]: 5.05e-08 s⁻¹
kon [5]: 4.77e+06 M⁻¹ s⁻¹
RU [6]: -8.4 RU
RU [7]: -10.7 RU
RU [8]: -14.8 RU
EC50 for IL-2 rescue, hLAG3 Jurkat T system [9]: 15.7 nM
Efficacy (IL-2 production, BMS = 100%) [9]: 41.4%
RU [10]: -114 RU
IL-2, % of BMS, at 0.005080526 ug/mL [11]: 8.4%
IL-2, % of BMS, at 0.015241579 ug/mL [11]: 8.77%
IL-2, % of BMS, at 0.045724737 ug/mL [11]: 6.07%
IL-2, % of BMS, at 0.137174211 ug/mL [11]: 14.2%
IL-2, % of BMS, at 0.411522634 ug/mL [11]: 14.8%
IL-2, % of BMS, at 1.234567901 ug/mL [11]: 30.7%
IL-2, % of BMS, at 3.703703704 ug/mL [11]: 46.4%
IL-2, % of BMS, at 11.11111111 ug/mL [11]: 45.7%
IL-2, % of BMS, at 33.33333333 ug/mL [11]: 54.4%
IL-2, % of BMS, at 100 ug/mL [11]: 51.3%
RU [12]: 22 RU
RU [13]: -11.6 RU
RU [14]: 4.9 RU
B1: sdAb No. 1 (VHH)
VHH: QLQLVESGGGLVQAGGSLRLSCAASGFTFDDYAIGWFRQAPGKEREGVSCIRSSDGSTYYADSVKGRFTISSDNAKNTVYLQMNSLKPEDTAVYYCAKDNYSDCRGPYHYWGQGTQVTVSS
notes: the tested form was captured by anti-human Fc, its Fc is not described; also called sdAb 1; not shown: Fc part implied by anti-human Fc capture

RU [1]: -10.1 RU
RU [2]: 30.5 RU
RU [3]: -13.6 RU
RU [4]: 33.2 RU
Kd [5]: 0.038 nM
koff [5]: 3.39e-05 s⁻¹
kon [5]: 894000 M⁻¹ s⁻¹
RU [6]: -8.5 RU
RU [7]: -11.2 RU
RU [8]: -12.9 RU
EC50 for IL-2 rescue, hLAG3 Jurkat T system [9]: 35.8 nM
Efficacy (IL-2 production, BMS = 100%) [9]: 44.7%
RU [10]: -12 RU
IL-2, % of BMS, at 0.005080526 ug/mL [11]: 10.7%
IL-2, % of BMS, at 0.015241579 ug/mL [11]: 2.74%
IL-2, % of BMS, at 0.045724737 ug/mL [11]: 3.44%
IL-2, % of BMS, at 0.137174211 ug/mL [11]: 10.8%
IL-2, % of BMS, at 0.411522634 ug/mL [11]: 1.26%
IL-2, % of BMS, at 1.234567901 ug/mL [11]: 17.8%
IL-2, % of BMS, at 3.703703704 ug/mL [11]: 34.9%
IL-2, % of BMS, at 11.11111111 ug/mL [11]: 47.2%
IL-2, % of BMS, at 33.33333333 ug/mL [11]: 57.7%
IL-2, % of BMS, at 100 ug/mL [11]: 48.2%
RU [12]: -8.8 RU
RU [13]: -11.3 RU
RU [14]: -6.6 RU
B2: sdAb No. 24 (VHH)
VHH: QLQLVESGGGLVQPGGSLRLSCAASGFTLNEHAIGWFRQAPGKEREGVSCISSSDGSTYYHDSVKGRFTMSRDDAKNTVYLQMNSLKAEDTAIYYCAAALGRDCQGGQWKTSSWGQGTQVTVSS
notes: Fc of the tested form not described; also called sdAb 24; not shown: Fc part implied by anti-human Fc capture

RU [1]: -209 RU
RU [2]: 23.3 RU
RU [3]: -7.8 RU
RU [4]: 205 RU
Kd [5]: 0.252 nM
koff [5]: 0.000429 s⁻¹
kon [5]: 1.71e+06 M⁻¹ s⁻¹
RU [6]: -19.3 RU
RU [7]: -12 RU
RU [8]: -24.2 RU
EC50 for IL-2 rescue, hLAG3 Jurkat T system [9]: 14.2 nM
Efficacy (IL-2 production, BMS = 100%) [9]: 26.9%
RU [10]: -20.1 RU
IL-2, % of BMS, at 0.005080526 ug/mL [11]: 8.49%
IL-2, % of BMS, at 0.015241579 ug/mL [11]: 9.36%
IL-2, % of BMS, at 0.045724737 ug/mL [11]: 3.55%
IL-2, % of BMS, at 0.137174211 ug/mL [11]: 6.06%
IL-2, % of BMS, at 0.411522634 ug/mL [11]: 14.7%
IL-2, % of BMS, at 1.234567901 ug/mL [11]: 20.3%
IL-2, % of BMS, at 3.703703704 ug/mL [11]: 38%
IL-2, % of BMS, at 11.11111111 ug/mL [11]: 33%
IL-2, % of BMS, at 33.33333333 ug/mL [11]: 34.5%
IL-2, % of BMS, at 100 ug/mL [11]: 35.1%
RU [12]: -9.9 RU
RU [13]: -21.8 RU
RU [14]: -16.6 RU
B3: sdAb No. 20 (VHH)
VHH: B4 VHH with L2V, I34V, A35G, E44D, T54S, G75A, N77S, I116V
notes: Fc of the tested form not described; also called sdAb 20; not shown: Fc part implied by anti-human Fc capture
